Legend:
[1] = target: T1, glycosylated active human PAI-1 produced by CHO cells (human, UniProt P05121 24-402, N-glycosylated (CHO-produced)); assay: SPR BIAcore T100, Antibody 08 on CM3 chip, PAI-1 as analyte, 37 C, n = 2
T1 construct: also called hu glyco; human glycosylated PAI-1

[2] = target: T1, glycosylated active human PAI-1 …; assay: SPR BIAcore T100, Antibody 08 on CM3 chip, PAI-1 as analyte, 25 C, n = 5
cynomolgus PAI-1 [3] = target: T2, cynomolgus PAI-1 (cynomolgus, UniProt P05121 24-402 (human entry), limits assumed); assay: as above
T2 construct: bacterially derived, made in house; also called cyno PAI-1

rat PAI-1 = target: T3, rat PAI-1 (rat, UniProt P20961 24-402); assay: SPR BIAcore T100, Antibody 08 on CM3 chip, PAI-1 as analyte, 25 C, n = 2
T3 construct: bought (US Biological)
T3 sequence: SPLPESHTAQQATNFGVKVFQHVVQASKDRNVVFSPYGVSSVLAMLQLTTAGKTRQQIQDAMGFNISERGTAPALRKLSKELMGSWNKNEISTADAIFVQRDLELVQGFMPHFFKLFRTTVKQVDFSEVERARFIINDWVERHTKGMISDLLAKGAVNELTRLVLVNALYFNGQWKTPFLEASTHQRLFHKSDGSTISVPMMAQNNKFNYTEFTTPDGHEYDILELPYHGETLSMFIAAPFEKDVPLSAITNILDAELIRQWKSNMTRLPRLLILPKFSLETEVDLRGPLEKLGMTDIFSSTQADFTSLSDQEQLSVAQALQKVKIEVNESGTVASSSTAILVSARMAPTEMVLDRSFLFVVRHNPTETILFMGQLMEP

[4] = target: T4, R271S stable mutant human PAI-1 (human, UniProt P05121 24-402); assay: SPR BIAcore 2000, Antibody 08 on CM5 chip, PAI-1 protein as analyte
T4 construct: His-tagged, expressed in E. coli
T4 chain: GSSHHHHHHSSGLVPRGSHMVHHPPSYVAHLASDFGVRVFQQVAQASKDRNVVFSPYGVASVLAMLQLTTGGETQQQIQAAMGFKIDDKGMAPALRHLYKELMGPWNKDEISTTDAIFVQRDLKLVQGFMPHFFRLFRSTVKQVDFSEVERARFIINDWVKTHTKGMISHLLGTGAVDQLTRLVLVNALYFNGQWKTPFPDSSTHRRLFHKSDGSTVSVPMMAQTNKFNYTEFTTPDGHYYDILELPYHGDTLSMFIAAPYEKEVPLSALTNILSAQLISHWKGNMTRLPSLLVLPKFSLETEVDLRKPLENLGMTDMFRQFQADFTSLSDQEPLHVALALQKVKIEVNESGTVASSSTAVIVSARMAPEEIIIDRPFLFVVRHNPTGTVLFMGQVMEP

[5] = target: T5, Y220S T267K stable mutant human PAI-1 (human, UniProt P05121 24-402); assay: as above
T5 construct: His-tagged, expressed in E. coli
T5 chain: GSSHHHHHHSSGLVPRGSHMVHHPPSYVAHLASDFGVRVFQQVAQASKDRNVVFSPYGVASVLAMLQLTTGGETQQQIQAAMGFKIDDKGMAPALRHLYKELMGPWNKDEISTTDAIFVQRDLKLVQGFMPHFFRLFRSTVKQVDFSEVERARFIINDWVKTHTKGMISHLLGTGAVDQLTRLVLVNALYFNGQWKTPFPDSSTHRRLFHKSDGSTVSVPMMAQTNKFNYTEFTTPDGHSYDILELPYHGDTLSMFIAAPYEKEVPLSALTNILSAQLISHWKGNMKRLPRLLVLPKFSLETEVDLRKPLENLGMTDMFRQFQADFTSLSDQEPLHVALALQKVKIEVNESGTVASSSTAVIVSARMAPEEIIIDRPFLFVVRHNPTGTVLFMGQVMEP

cynomolgus PAI-1 [6] = target: T2, cynomolgus PAI-1; assay: SPR BIAcore T100, Antibody 08 on CM3 chip, PAI-1 as analyte, 37 C, n = 1

B1: Antibody 08 (as coupled to the BIAcore chip; format not stated) (antibody, V domains shown)
VH: QVQLVQSGAEVKKPGSSVKVSCKASGGTFSSYAISWVRQAPGQGLEWMGGIIPTFGTANYAQKFQGRVTITADESTSTAYMELSSLRSEDTAVYYCARERRQWLEGHFDYWGRGTLVTVSS
VL: DIQMTQSPSTLSASVGDRVTITCRASEGIYHNLAWYQQKPGKAPKLLIYKASSLASGVPSRFSGSRSGTEFTLTISSLQPDDFATYYCQQYSNYPLTFGGGTKVEIK
notes: also called candidate antibody (Antibody 08)
Kd [1]: 0.007 nM | Kd [2]: 0.006 nM | Kd (cynomolgus PAI-1 [3]): 0.013 nM | Kd (rat PAI-1): 0.105 nM | Kd [4]: 7.4 nM | Kd [5]: 0.14 nM | Kd (cynomolgus PAI-1 [6]): 0.013 nM

Reference: patent publication US20120114652A1 (AbbVie / Abbott, published 2012)
